Test results taken from paper PMC11960969, “Mdga2 deficiency leads to an aberrant activation of BDNF/TrkB signaling that underlies autism-relevant synaptic and behavioral changes in mice” (PLOS Biology, 2025).

What was measured:
TrkB [1] = assay: BDNF-induced TrkB tyrosine phosphorylation in primary hippocampal neurons (IP anti-TrkB, immunoblot pTyr); assay type: cell-based, mouse; settings: primary hippocampal neurons DIV 7, 30 min; Mdga2+/- and Mdga2-/- vs WT neurons; Fig 3A, S3A
Method: (§1) Fig 3 MDGA2 interacts with TrkB and suppresses TrkB activity. (A) Primary hippocampal neurons derived from Mdga2^ +/− (Het) mice and their wild-type (WT) littermates at DIV 7 were treated with different doses of BDNF for 30 min. Equal amounts of protein lysates were subjected to immunoprecipitation (IP) with an anti-TrkB antibody, followed by immunoblotting with an anti-phosphotyrosine (pTyr) antibody or the anti-TrkB antibody. The pTyr levels were quantified by densitometry, normalized to total TrkB levels, and then compared to those of WT controls. n = 3 per group. (B) WT mouse brain lysates were subjected to IP with an anti-MDGA2 antibody and a control IgG, and immunoblotted (IB) for the components indicated. mBDNF, mature BDNF; ImBDNF, immature BDNF. […] Immunoprecipitated TrkB levels were quantified by densitometry, normalized to input levels, and compared to respective controls (set to one arbitrary units). n = 3 per group. […] Levels of phosphorylated proteins were quantified by densitometry, normalized to respective total protein levels and compared to controls (set to one arbitrary units). n = 6 per group. […] P-values were determined by two-tailed unpaired Student t-test in (A) and one-way ANOVA with Tukey’s multiple comparisons test in (H, I, J). *p < 0.05, **p < 0.01, ***p < 0.001, ns: not significant. […]

ASD animal models = settings: cited from earlier work
recombinant TrkB protein = biological target: T1, recombinant TrkB protein (Homo sapiens, UniProt Q16620); assay: Surface plasmon resonance (Biacore CM5, immobilized TrkB); assay type: binding; settings: SPR, TrkB immobilized on Biacore CM5 chip, analyte at several concentrations, Biacore T100 Evaluation software
T1 construct: Full-length human TrkB or MDGA2 cDNA was cloned into the pcDNA6-His vector; His; made in house; host or cells: HEK293T cells
T1 sequence (Q16620 32-822): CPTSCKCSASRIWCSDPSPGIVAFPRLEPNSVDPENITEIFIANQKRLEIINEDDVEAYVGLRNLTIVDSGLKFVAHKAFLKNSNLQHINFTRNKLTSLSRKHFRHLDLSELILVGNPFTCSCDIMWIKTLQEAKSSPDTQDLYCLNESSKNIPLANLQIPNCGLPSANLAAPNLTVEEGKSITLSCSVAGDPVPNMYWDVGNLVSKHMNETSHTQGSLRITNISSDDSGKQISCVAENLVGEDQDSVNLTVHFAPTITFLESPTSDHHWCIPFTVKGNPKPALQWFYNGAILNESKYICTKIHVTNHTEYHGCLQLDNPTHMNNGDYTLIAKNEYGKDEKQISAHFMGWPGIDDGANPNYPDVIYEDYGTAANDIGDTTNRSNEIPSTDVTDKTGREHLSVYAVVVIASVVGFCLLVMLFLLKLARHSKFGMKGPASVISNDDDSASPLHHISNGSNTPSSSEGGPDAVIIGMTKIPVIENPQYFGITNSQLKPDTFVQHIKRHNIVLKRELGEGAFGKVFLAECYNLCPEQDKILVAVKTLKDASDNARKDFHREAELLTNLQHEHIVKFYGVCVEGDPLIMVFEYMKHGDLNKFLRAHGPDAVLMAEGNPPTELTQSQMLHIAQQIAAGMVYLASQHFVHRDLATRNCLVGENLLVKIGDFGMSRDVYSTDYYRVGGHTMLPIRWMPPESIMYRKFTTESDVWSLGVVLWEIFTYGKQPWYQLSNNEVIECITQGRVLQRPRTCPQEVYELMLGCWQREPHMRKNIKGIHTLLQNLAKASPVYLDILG
Method: as §1

BDNF-TrkB interaction = assay: BDNF-TrkB Co-IP (anti-BDNF or anti-TrkB) in primary neurons / brain of Het, KO, WT and in WT neurons transfected with MDGA2 or ΔMAM; assay type: cell-based, mouse; settings: IP anti-BDNF, Fig 3I
Method: as §1

[2] = system: TrkB signaling (pTrkB, pAkt, pmTOR); assay: Immunoblotting of TrkB/Akt/mTOR phosphorylation in primary neurons transfected with MDGA2, ΔMAM or V930I; assay type: cell-based, mouse; settings: for pAkt level normalized to total protein / pTrkB level normalized to total protein / pmTOR level normalized to total protein: KO neurons transfected, WT/Ctrl set to one
Method: Fig 3 MDGA2 interacts with TrkB and suppresses TrkB activity. (A) Primary hippocampal neurons derived from Mdga2^ +/− (Het) mice and their wild-type (WT) littermates at DIV 7 were treated with different doses of BDNF for 30 min. Equal amounts of protein lysates were subjected to immunoprecipitation (IP) with an anti-TrkB antibody, followed by immunoblotting with an anti-phosphotyrosine (pTyr) antibody or the anti-TrkB antibody. The pTyr levels were quantified by densitometry, normalized to total TrkB levels, and then compared to those of WT controls. n = 3 per group. (B) WT mouse brain lysates were subjected to IP with an anti-MDGA2 antibody and a control IgG, and immunoblotted (IB) for the components indicated. mBDNF, mature BDNF; ImBDNF, immature BDNF. (C) Hippocampal neurons from WT mice at DIV 7 were immunostained with antibodies against MDGA2 (red) and TrkB (green), and then counter-stained with DAPI (blue). Images were acquired by a confocal microscope. Scale bar: 10 μm. (D) Surface plasmon resonance (SPR) analysis of the binding between recombinant MDGA2 protein and recombinant TrkB protein. TrkB was immobilized on a Biacore CM5 chip and tested for its binding with MDGA2 at the concentrations indicated. (E) Computer simulation of the binding mode of TrkB and MDGA2. The predicted binding domain of TrkB (the d5 domain) is highlighted by a red square and labeled in brown. The predicted binding domain of MDGA2 (the MAM domain) is highlighted by a red square and labeled in yellow. (F) HEK293T cells were co-transfected with TrkB-Flag and GFP-tagged full-length MDGA2 (MDGA2-GFP) or an MDGA2 deletion fragment lacking the entire MAM domain (ΔMAM-GFP). Cell lysates were subjected to IP with control IgG and antibodies against Flag or GFP, and immunoblotted for the components indicated. […] The scheme of MDGA2-ΔMAM is also shown. (G) HeLa cells were co-transfected with TrkB that is tagged with the N-terminal Venus fragment (TrkB-VN) and full-length MDGA2 or MDGA2-ΔMAM that are tagged with the C-terminal Venus fragment (MDGA2-VC or ΔMAM-VC) for 24 h. After immunostaining with antibodies against MDGA2/MDGA2-ΔMAM (pink) and TrkB (red), cells were observed by confocal microscopy. Venus signal (green) indicates the interaction between MDGA2 and TrkB. Schematic diagrams depicting the BiFC assay are also shown. Scale bars: 10 μm. (H, I) Equal amounts of protein lysates from primary neurons derived from Het, KO, and their WT littermate mice (H), and from WT primary neurons transfected with GFP control, MDGA2-GFP or ΔMAM-GFP (I) were subjected to IP with IgG and an anti-BDNF antibody, and then immunoblotted for the components indicated. Immunoprecipitated TrkB levels were quantified by densitometry, normalized to input levels, and compared to respective controls (set to one arbitrary units). n = 3 per group. (J) Neurons derived from KO mice were transfected with GFP control (Ctrl), MDGA2-GFP, or MDGA2-ΔMAM-GFP, and neurons derived from their WT littermates were transfected with GFP control (Ctrl). Equal amounts of protein lysates were subjected to immunoblotting for the proteins indicated. Levels of phosphorylated proteins were quantified by densitometry, normalized to respective total protein levels and compared to controls (set to one arbitrary units). n = 6 per group. Data represent mean ± SEM. P-values were determined by two-tailed unpaired Student t-test in (A) and one-way ANOVA with Tukey’s multiple comparisons test in (H, I, J). *p < 0.05, **p < 0.01, ***p < 0.001, ns: not significant. The data underlying this figure can be found in S1 Data, specifically in the sheet labeled “Figure 3”.
Fig 7 The autism spectrum disorder (ASD)-associated MDGA2 V930I mutation impairs the MDGA2-TrkB interaction and MDGA2’s inhibitory effect on the tyrosine kinase B (TrkB) signaling. (A) Schematic depiction of the WT human MDGA2 and its V930I mutation constructs that are tagged with GFP. […]

TrkB (TrkB-VN) = assay: BiFC assay in HeLa cells (TrkB-VN with MDGA2-VC or ΔMAM-VC); assay type: cell-based, human; settings: 24 h, Venus fluorescence
Method: as §1

TrkB [3] = assay: Co-IP of endogenous MDGA2 and TrkB from WT mouse brain lysates; assay type: binding

B1: brain-derived neurotrophic factor (protein)
chain: APMKEVNVHGQGNLAYPGVRTHGTLESVNGPRAGSRGLTTTSLADTFEHVIEELLDEDQKVRPNEENHKDADLYTSRVMLSSQVPLEPPLLFLLEEYKNYLDAANMSMRVRRHSDPARRGELSVCDSISEWVTAADKKTAVDMSGGTVTVLEKVPVSKGQLKQYFYETKCNPMGYTKEGCRGIDKRHWNSQCRTTQSYVRALTMDSKKRIGWRFIRIDTSCVCTLTIKRGR
Phosphorylation of TrkB induced by BDNF (TrkB [1]): showed a dose-dependent manner and was much stronger in Mdga2^ +/− and Mdga2^−/− neurons than in WT neurons
repetitive self-grooming behavior and anxiety-like behavior (ASD animal models; overexpression of BDNF, neonatally isolated rats): rescued repetitive self-grooming behavior and anxiety-like behavior
social deficits (ASD animal models; valproic acid-exposed mice): attenuated social deficits in valproic acid-exposed mice

B2: MDGA2: MAM domain containing glycosylphosphatidylinositol anchor 2; full-length human, recombinant or transfected (protein, UniProt Q7Z553 1-956, looked up)
chain: MDLLYGLVWLLTVLLEGISGQGVYAPPTVRIVHSGLACNIEEERYSERVYTIREGETLELTCLVTGHPRPQIRWTKTAGSASDRFQDSSVFNETLRITNIQRHQGGRYYCKAENGLGSPAIKSIRVDVYYLDDPVVTVHQSIGEAKEQFYYERTVFLRCVANSNPPVRYSWRRGQEVLLQGSDKGVEIYEPFFTQGETKILKLKNLRPQDYANYSCIASVRNVCNIPDKMVSFRLSNKTASPSIKLLVDDPIVVNPGEAITLVCVTTGGEPAPSLTWVRSFGTLPEKTVLNGGTLTIPAITSDDAGTYSCIANNNVGNPAKKSTNIIVRALKKGRFWITPDPYHKDDNIQIGREVKISCQVEAVPSEELTFSWFKNGRPLRSSERMVITQTDPDVSPGTTNLDIIDLKFTDFGTYTCVASLKGGGISDISIDVNISSSTVPPNLTVPQEKSPLVTREGDTIELQCQVTGKPKPIILWSRADKEVAMPDGSMQMESYDGTLRIVNVSREMSGMYRCQTSQYNGFNVKPREALVQLIVQYPPAVEPAFLEIRQGQDRSVTMSCRVLRAYPIRVLTYEWRLGNKLLRTGQFDSQEYTEYAVKSLSNENYGVYNCSIINEAGAGRCSFLVTGKAYAPEFYYDTYNPVWQNRHRVYSYSLQWTQMNPDAVDRIVAYRLGIRQAGQQRWWEQEIKINGNIQKGELITYNLTELIKPEAYEVRLTPLTKFGEGDSTIRVIKYSAPVNPHLREFHCGFEDGNICLFTQDDTDNFDWTKQSTATRNTKYTPNTGPNADRSGSKEGFYMYIETSRPRLEGEKARLLSPVFSIAPKNPYGPTNTAYCFSFFYHMYGQHIGVLNVYLRLKGQTTIENPLWSSSGNKGQRWNEAHVNIYPITSFQLIFEGIRGPGIEGDIAIDDVSIAEGECAKQDLATKNSVDGAVGILVHIWLFPIIVLISILSPRR
modifications: full-length GFP tag in some constructs
notes: MAM domain containing glycosylphosphatidylinositol anchor 2; full-length human, recombinant or transfected
Kd (recombinant TrkB protein): 24.4 nM
interaction between BDNF and TrkB upon overexpression (BDNF-TrkB interaction): attenuated the interaction between BDNF and TrkB
pAkt level normalized to total protein ([2]; replicate 1): 1.48 arbitrary units
pTrkB level normalized to total protein ([2]; replicate 1): 1.52 arbitrary units
pmTOR level normalized to total protein ([2]; replicate 1): 0.88 arbitrary units
pAkt level normalized to total protein ([2]; replicate 2): 1.42 arbitrary units
pTrkB level normalized to total protein ([2]; replicate 2): 1.19 arbitrary units
pmTOR level normalized to total protein ([2]; replicate 2): 1.02 arbitrary units
pAkt level normalized to total protein ([2]; replicate 3): 1.72 arbitrary units
pTrkB level normalized to total protein ([2]; replicate 3): 1.31 arbitrary units
pmTOR level normalized to total protein ([2]; replicate 3): 1.26 arbitrary units
pAkt level normalized to total protein ([2]; replicate 4): 1.9 arbitrary units
pTrkB level normalized to total protein ([2]; replicate 4): 1.16 arbitrary units
pmTOR level normalized to total protein ([2]; replicate 4): 1.35 arbitrary units
pAkt level normalized to total protein ([2]; replicate 5): 1.87 arbitrary units
pTrkB level normalized to total protein ([2]; replicate 5): 1.08 arbitrary units
pmTOR level normalized to total protein ([2]; replicate 5): 1.92 arbitrary units
pAkt level normalized to total protein ([2]; replicate 6): 1.07 arbitrary units
pTrkB level normalized to total protein ([2]; replicate 6): 1.03 arbitrary units
pmTOR level normalized to total protein ([2]; replicate 6): 1.41 arbitrary units
overactivation of TrkB signaling (pTrkB, pAkt, pmTOR) upon expression ([2]; Mdga2-/- neurons, Fig 3J, n = 6): could be reversed upon the expression of full-length MDGA2
interaction with TrkB (BiFC) (TrkB (TrkB-VN)): could interact with full-length MDGA2
interaction of endogenous MDGA2 (Co-IP) (TrkB [3]; IP anti-MDGA2, Fig 3B): immunoprecipitated TrkB and NLGN1 but not mBDNF or ImBDNF
interaction of endogenous MDGA2 (Co-IP) (TrkB [3]; IP anti-TrkB, S3C Fig): specifically immunoprecipitated MDGA2 but not MDGA1
